Measured values published in patent publication US20170022545, “RNA MICROARRAY FOR DETECTING INTERACTION BETWEEN PROTEIN AND RNA CONTAINING A HIGHER-ORDER STRUCTURE” (KYOTO UNIVERSITY, published 2017).

Columns and labels:
U1A [1] = target: T1, U1A (Homo sapiens, UniProt P09012 P09012:2-282); test: RNA microarray, signal at least 10-fold below U1A2/U1A; conditions: tags: Cy3-labelled (NHS ester), label: 3' pCp-Cy5, hairpin
Procedure: (§1) To a 1.5-mL tube, 120 ng of Cy5-RNA probe PoP_00001 Kt, 120 ng of Cy5-RNA probe PoP_00001, 00008, 00010, 00011, 00014, 00016, PoP_00018-28 and ultrapure water were mixed and controlled to have a volume of 18 μL. Hereinafter, the same operation as described in Section 8 above was performed. Binding of the RNA probe to a target spot was confirmed based on Cy5 signal.
(§2) Subsequently, to the gasket slide on the hybridization chamber, 70 μL of 40 nM Cy3-U1A was added and a microarray slide having RNA probes bound thereto was mounted and then a hybridization chamber was assembled. Incubation was performed at room temperature for 30 minutes. The hybridization chamber was made into pieces and the microarray slide was taken out, separated from the gasket in the TBSMT buffer, washed with TBSMT buffer at room temperature for 5 minutes, and further rinsed with TBSM buffer. Thereafter, the dried microarray slide was scanned.

L7Ae [2] = target: T2, L7Ae (UniProt O29494 O29494:1-119); test: RNA microarray, no Cy3 signal; conditions: tags: Cy3-labelled (NHS ester); label: 3' pCp-Cy5; hairpin
Procedure: The mixture solution was incubated at 100° C. for 5 minutes and subsequently on ice for 5 minutes. On the lower frame of a hybridization chamber (Agilent), a gasket slide (Agilent) was mounted. In a single well of the gasket slide, the mixture solution (45 μL) was added and the well was covered with a DNA Barcode microarray slide and then a hybridization chamber was assembled. The hybridization chamber was set at a rotor (Agilent) of a hybridization oven of 55° C. Incubation was performed for 20 hours at a rotation rate of 20 per minute. The hybridization chamber was taken out from the oven and made into pieces. The microarray slide was taken out, separated from the gasket in Gene Expression Wash Buffer 1 (Agilent), washed with Gene Expression Wash Buffer 1 at room temperature for 5 minutes and further washed with Gene Expression Wash Buffer 2 (Agilent) at 37° C. for 5 minutes. The dried microarray slide was scanned by a microarray scanner (Agilent) in the mode of 8×15K, c scan, AglilentHD_miRNA, two color, XDR Hi and Lo (0.05). In this manner, binding of an RNA probe to a target spot was confirmed based on Cy5 signal.
Subsequently, to the gasket slide on the hybridization chamber, 70 μL of 5 nM Cy3-L7Ae (controlled in concentration with TBSMT buffer (Tris-HCl 20 mM, NaCl 300 mM, 5 mM MgCl₂, 0.1% Tween-20)) was added and then a microarray slide scanned was mounted. A hybridization chamber was assembled and incubation was performed at room temperature for 30 minutes. The hybridization chamber was made into pieces and the microarray slide was taken out, separated from the gasket in the TBSMT buffer, washed with TBSMT buffer at room temperature for 5 minutes, and further washed with TBSM buffer (Tris-HCl 20 mM, NaCl 300 mM, 5 mM MgCl₂) at room temperature for 5 minutes. The dried microarray slide was scanned again. […] In addition, Cy3 signal, which was 1.5 times as strong as that at PoP_00001_Kt, was detected at a spot of PoP_00024_hsa-let-7e. No Cy3 signal was detected at spots of other 10 probes.

L7Ae [3] = target: T2, L7Ae; test: RNA microarray, 5 nM L7Ae, 300 mM NaCl, 5 mM MgCl2; conditions: tags: Cy3-labelled (NHS ester); label: 3' pCp-Cy5; hairpin
Procedure: To a 1.5 mL tube, 120 ng of Cy5-RNA probe PoP_00001_Kt, 120 ng of Cy5-RNA probe PoP_00018-28 and ultrapure water were mixed and controlled to have a volume of 18 μL. To this, 4.5 μL of 10× Gene Expression Blocking Agent (Agilent) and 22.5 μL of 2×Hi-RPM Hybridization Buffer (Agilent) were added and mixed. The mixture solution was incubated at 100° C. for 5 minutes and subsequently on ice for 5 minutes. On the lower frame of a hybridization chamber (Agilent), a gasket slide (Agilent) was mounted. In a single well of the gasket slide, the mixture solution (45 μL) was added and the well was covered with a DNA Barcode microarray slide and then a hybridization chamber was assembled. The hybridization chamber was set at a rotor (Agilent) of a hybridization oven of 55° C. Incubation was performed for 20 hours at a rotation rate of 20 per minute. The hybridization chamber was taken out from the oven and made into pieces. […]
Subsequently, to the gasket slide on the hybridization chamber, 70 μL of 5 nM Cy3-L7Ae (controlled in concentration with TBSMT buffer (Tris-HCl 20 mM, NaCl 300 mM, 5 mM MgCl₂, 0.1% Tween-20)) was added and then a microarray slide scanned was mounted. […] In addition, Cy3 signal, which was 1.5 times as strong as that at PoP_00001_Kt, was detected at a spot of PoP_00024_hsa-let-7e.

L7Ae [4] = target: T2, L7Ae; test: EMSA; 50 mM HEPES-KOH pH 7.8, 100 mM KCl, on ice; conditions: tags: Cy3-labelled (NHS ester); label: 3' pCp-Cy5; hairpin
Procedure: Specific binding of DNA Barcode (bc25mer_00001) and Cy5-RNA probe (PoP_00001_Kt), and further, binding of Cy5-RNA probe (PoP_00001_Kt, PoP_00024_hsa-let-7e) and L7Ae were confirmed by EMSA as follows. First, bc25mer_00001 and PoP_00001_Kt or PoP_00024_hsa-let-7e were mixed and annealed. The composition of a reaction solution (11 μL) was as follows: 500 nM bc25mer_00001, 500 nM Cy5-RNA probe, 1× Annealing Buffer (50 mM HEPES-KOH (ph7.8), 100 mM KCl). The reaction was incubated at 95° C. for 5 minutes and at room temperature for 10 minutes. Subsequently, the DNA/RNA complex annealed and L7Ae were bound by mixing them as follows. The composition of a reaction solution (15 μL) was as follows: 0, 100, 200, 500 or 1000 nM Cy3-L7Ae, 50 nM DNA/RNA complex and 1× Annealing Buffer. Incubation was performed on ice for one hour. To the solution, 3.75 μL of a 5× dye solution (0.25% bromophenol blue, 30% glycerol) was added and mixed. The mixture solution (10 μL) was overlaid on non-denatured 15% polyacrylamide (1/30 bis-acrylamide) gel and electrophoresis was performed at 4° C. and 200 V for 60 minutes. After the electrophoresis, the gel was stained with SYBR Green I and II at room temperature for 15 minutes, and scanned by Typhoon FLA 7000 (GE Healthcare) in SYBR Green mode (600 pmt). Bands were confirmed.

U1A [5] = target: T1, U1A; test: RNA microarray, 40 nM U1A; conditions: tags: Cy3-labelled (NHS ester); label: 3' pCp-Cy5; hairpin
Procedure: as §1, §2

T2 sequence (O29494 whole entry, one chain of several): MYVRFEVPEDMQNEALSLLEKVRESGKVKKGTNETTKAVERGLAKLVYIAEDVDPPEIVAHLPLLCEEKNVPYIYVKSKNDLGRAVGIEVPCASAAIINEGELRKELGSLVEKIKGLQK
T1 sequence (P09012 2-282, one chain of several): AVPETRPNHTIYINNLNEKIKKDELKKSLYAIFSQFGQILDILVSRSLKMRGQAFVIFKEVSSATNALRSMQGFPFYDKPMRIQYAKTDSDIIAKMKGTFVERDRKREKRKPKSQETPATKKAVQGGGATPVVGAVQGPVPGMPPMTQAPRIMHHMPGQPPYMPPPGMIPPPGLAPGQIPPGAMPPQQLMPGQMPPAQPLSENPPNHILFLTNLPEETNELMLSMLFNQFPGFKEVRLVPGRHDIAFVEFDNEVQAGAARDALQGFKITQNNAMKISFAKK

Binder | binding result (U1A [1]) | binding result (L7Ae [2]) | other results
PoP_00028_hsa-let-7i loop (ssRNA) RNA: GAUAUGACCGCCGGCUUAGAAUAGAAGGUGUACGAAGUUUCAGCGCUGUUGGUCGGGUUGUGACAUUGCCCGCUGUGGAGAUAACUGCGCUGAAGCUUCGUGCAC | no binding | no binding | –
PoP_00008_dKt (ssRNA) RNA: GGAUUCCACUCAAGCUUCACGGGAUAGUUUGGGAAUAUAGUGCCUGCCCGAAAGGGCGUCAUGGCGCUAUAUUCCCGGA | no binding | – | –
PoP_00024_hsa-let-7e loop (ssRNA) RNA: GACGGGAUCCAAGCGCUCGUAAUAGCGGUGUACGAAGUUUCAGCAUAGUUGAGGAGGACACCCAAGGAGAUCACUAUGCUGAAGCUUCGUGCAC | no binding | – | binding signal (L7Ae [3]): 1.5 fold Cy3 signal vs Kt; binding signal (L7Ae [4]): ~10 fold stronger than Kt
PoP_00010_U1A2 (ssRNA) RNA: GGUGUCCAGAUUAGGCGUGCCAUACCGUUUGGGAAUAUAGUGCCGAGUCCUUCGGGACAUUGCACCGGCGCUAUAUUCCCGGA | – | – | binding signal (U1A [5]): ≥ 10 fold Cy3 signal vs other spots
PoP_00025_hsa-let-7f-1 loop (ssRNA) RNA: GUAAUCGAGGCGUAAGGCACAACAUAGGUGUACGAAGUUUCAGCAUAGUUGUGGGGUAGUGAUUUUACCCUGUUCAGGAGAUAACUAUGCUGAAGCUUCGUGCAC | no binding | no binding | –
PoP_00014_U1A (ssRNA) RNA: GAUAGAGCCAACUAUGCGCAGUUACCGUUUGGGAAUAUAGUGCCAUUGCACUCCGGCGCUAUAUUCCCGGA | – | – | binding signal (U1A [5]): ≥ 10 fold Cy3 signal vs other spots
PoP_00019_hsa-let-7a-2 loop (ssRNA) RNA: GACACGGUAGGGAAACCCACCAACUAGGUGUACGAAGUUUCAGCAUAGUUUAGAAUUACAUCAAGGGAGAUAACUGUGCUGAAGCUUCGUGCAC | no binding | no binding | –
PoP_00022_hsa-let-7c loop (ssRNA) RNA: GAACUGGCAAUCGCACCCACCUAAAGGGUGUACGAAGUUUCAGCGGUUUAGAGUUACACCCUGGGAGUUAACUGCUGAAGCUUCGUGCAC | no binding | no binding | –
PoP_00001_Kt (ssRNA) RNA: GUAUAAGCGGGAGAUUCGUCCUCAUAGGUGUACGAAGUUUCAGCUGACCCGAAAGGGCGUGAUGCUGAAGCUUCGUGCAC | – | – | binding result (U1A [1]; Kt kink-turn loop): no binding
PoP_00027_hsa-let-7g loop (ssRNA) RNA: GCACAAGGAGUAAGGCGCAUGUACCCGGUGUACGAAGUUUCAGCACAGUUUGAGGGUCUAUGAUACCACCCGGUACAGGAGAUAACUGUGCUGAAGCUUCGUGCAC | no binding | no binding | –
PoP_00021_hsa-let-7b loop (ssRNA) RNA: GAACCGGCUACGCUAAACUUAGAACCGGUGUACGAAGUUUCAGCGUGGUUUCAGGGCAGUGAUGUUGCCCCUCGGAAGAUAACUAUGCUGAAGCUUCGUGCAC | no binding | no binding | –
PoP_00011_dU1A2 (ssRNA) RNA: GAGACGAGGCCCUAGAUCAUGCAUCCGUUUGGGAAUAUAGUGCCGAGUCCUUCGGGACAUUACGGCGGCGCUAUAUUCCCGGA | no binding | – | –
PoP_00023_hsa-let-7d loop (ssRNA) RNA: GCAAUAUCAUCGCGUGUUAAGGUGGCGGUGUACGAAGUUUCAGCAUAGUUUUAGGGCAGGGAUUUUGCCCACAAGGAGGUAACUAUGCUGAAGCUUCGUGCAC | no binding | no binding | –
PoP_00016_dU1A (ssRNA) RNA: GGGGUAUAUCCUCACACUUCCCGGGCGUUUGGGAAUAUAGUGCCAUUACGGUCCGGCGCUAUAUUCCCGGA | no binding | – | –
PoP_00026_hsa-let-7f-2 loop (ssRNA) RNA: GCCUUGAUGGCCGUCAGUUCGGUUAAGGUGUACGAAGUUUCAGCAUAGUUUUAGGGUCAUACCCCAUCUUGGAGAUAACUAUGCUGAAGCUUCGUGCAC | no binding | no binding | –
PoP_00018_hsa-let-7a-1 loop (ssRNA) RNA: GGUGACGGGCAAAUCACUAACCACCCGGUGUACGAAGUUUCAGCAUAGUUUUAGGGUCACACCCACCACUGGGAGAUAACUAUGCUGAAGCUUCGUGCAC | no binding | no binding | –
PoP_00020_hsa-let-7a-3 loop (ssRNA) RNA: GAGAGAGGAUUCUCACUUACUGUACCGGUGUACGAAGUUUCAGCAUAGUUUGGGGCUCUGCCCUGCUAUGGGAUAACUAUGCUGAAGCUUCGUGCAC | no binding | no binding | –
